The values that follow are results of earlier work, collected in article PMC11381654.

The term Kd denotes the constant that tells how readily two partners part at equilibrium.

The data set concerns the target IL-4Rα (Homo sapiens) (UniProt P24394).

Turning to dupilumab, the Kd is 0.033 nM.
